Data from the nanobody polyreactivity screen of Harvey et al. (2022).

Assay: yeast display, Sf9 membrane polyspecificity reagent, FACS + sequencing; frameworks hold sequencing errors
Outline: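 Nanobodies from a synthetic yeast display library (Saccharomyces cerevisiae BJ5465), induced 36–48 hours with galactose, were stained 1 hour at 4 °C with 10% biotinylated, detergent-solubilized Sf9 membrane reagent, enriched on streptavidin microbeads, then FACS-sorted. Anti-HA (expression) and streptavidin (reagent binding) fluorescence set low and high (top ~1%) gates. Polyreactivity labels come from the gate of origin. Genes were colony-PCR amplified, MiSeq 2 × 250 sequenced and filtered by CDR length.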
For “QVQLVESGGGLVQAGGSLRISCAASGSIFNIYAMGWSRQAPGKERELVATITGIADSTYYADSVKGRFTISRDNAKNTVNFQMNSLKPEDTAVYYCAARRTRVTGRYSVYAFDYWGQGTQVTVSS”, the “polyreactivity (PSR sort gate)” value was “low polyreactivity”. With “QVQLVESGGGLVQAGGSLRISCAASGSIFRSNAMGWYRQAPGKEREMVAAISSSGGSTYYADSVKGRFTISRDNAKNTVYFQMNSLKPEDTAVYYCAAEVLSSDLFRPDSIVDYWGQGTQVNVSS” the “polyreactivity (PSR sort gate)” value was “low polyreactivity”. In the case of “QVQLVESGGGLVQAGGSLRISCAASGSIFYYYDMGWYRQAPGKERELVASISRGGRTYYADSVKGRFTISRDNAMNTVYLQMNSLKPEDTAVYYCAAGYYIRYYGIMDYWGQGTQVTVSS”, the “polyreactivity (PSR sort gate)” value is reported as “high polyreactivity”. In the case of “QVQLVESGGGLVQAGGSLRISCAASGSILVFYAMGWYRQAPGKESELVATITGSVGRTSYADSVKGRFTISRDNAKNTVYLQMNSLIPEDTAVYYCAADADTDVFYILQEYDYWGQGTQVTVSS”, the “polyreactivity (PSR sort gate)” value is reported as “low polyreactivity”. With “QVQLVESGGGLVQAGGSLRISCAASGSNFSYYAMGWYRQAPGKEREFVAAISWSGGSTYYADSVKGRFTISRDNAKNTVYLQMNSLKPEDTAVYYCAAELSLSWLVPEVPYYYWGQGTQVTGSS” the “polyreactivity (PSR sort gate)” value was “low polyreactivity”. With “QVQLVESGGGLVQAGGSLRISCAASGSTFANYSMGWYRQAPGKERELVAVISVRGGSTYYADSVKGRFTISRDNAKNTVYLQMNSLKPEDTAVYYCAADASGPRRYDSWGQGTQVTVSS” the “polyreactivity (PSR sort gate)” value was “high polyreactivity”. In the case of “QVQLVESGGGLVQAGGSLRISCAASGSTFDDNAMGWYRQAPGKERELVASITYRGGSTYYADSVKGRFTISRDNAKNTVYLQMNSLKPEDTAVYYCAKGHYFKYDYWGQGTQVTVSS”, the “polyreactivity (PSR sort gate)” value is reported as “low polyreactivity”. For “QVQLVESGGGLVQAGGSLRISCAASGSTFDIYAMGWYRQAPGKERELVAAISNSGDTYYADSVKGRFTISRDNAKNTVYLQMNSLKPEDTAVYYCNADFHDWFDYWGQGTQVTVSS”, the “polyreactivity (PSR sort gate)” value was “high polyreactivity”. In the case of “QVQLVESGGGLVQAGGSLRISCAASGSTFGPYAMGWYRPAPGKERELVAAITKSGGRTYYADSVKGRFTISRDNAKNTVYLQMNSLKPEDTAVYYCAAYGSVGLEYWGQGTQVTVSS”, the “polyreactivity (PSR sort gate)” value is reported as “high polyreactivity”. With “QVQLVESGGGLVQAGGSLRISCAASGSTFQYYAMGWYRPAPGKETELVAAISDRDGGTFYADSVKGRFTISRDNAKNTVYLQMNSLKPEDTAVYYCANDAVGFRLDDNGYWGQGTQVTVSS” the “polyreactivity (PSR sort gate)” value was “low polyreactivity”. With “QVQLVESGGGLVQAGGSLRISCAASGSTFSNYAMGWYRQAPGKERELVAAINSGGRTKYADSVKGRFTISRDNAKNSVYLQMNSLKPEDTAVYYCAKRIENFSGSLAGRWYDYWGQGTQVTVSS” the “polyreactivity (PSR sort gate)” value was “high polyreactivity”. For “QVQLVESGGGLVQAGGSLRISCAASGSTFSSYAMGWYRQAPGKERELVAAISRSGDRTYYADSVKGRFTISRDNAEKTVYFQMNSLKPEDTAFYYCNTVYINRVTNLYDYWGQGTQVTVSS”, the “polyreactivity (PSR sort gate)” value was “high polyreactivity”. With “QVQLVESGGGLVQAGGSLRISCAASGSTFTTYSMGWYRQAPGKEREKVAAIRFSGGTTYYADSVKGRFTISRDNAKNTVYLQMNSLKPEDTAVYYCAAVYISRIFFGRARGDYWGQGTQVTVSS” the “polyreactivity (PSR sort gate)” value was “low polyreactivity”. For “QVQLVESGGGLVQAGGSLRISCAASGSTFWTYAMGWYRQAPGKERELVAAITTGGNTYYADSVKGRFTISRDNAKNTVYLQMNSLKPEDTAVYSCAAASWTYYYSQYGAVFREYDYWGQGTEVTVSS”, the “polyreactivity (PSR sort gate)” value was “low polyreactivity”. For “QVQLVESGGGLVQAGGSLRISCAASGSTFYFNAMGWYRQAPGKERELVAGISSGGSTYYADSVKWRFTISRDNAKTTVYLQMNSLKPEDTAVYYCAATWLVERPFSYTEYGYWGQGTQVTVSS”, the “polyreactivity (PSR sort gate)” value was “low polyreactivity”. In the case of “QVQLVESGGGLVQAGGSLRISCAASGSTFYYYAMGWYRQAPGKERELVAAISTTGGSTYYADSVKGRFTISRDNAKNTVYLQMNSLKPEDTAVYYCNAVTRYSRVRAVSSRDSEYWGQGTQVTVSS”, the “polyreactivity (PSR sort gate)” value is reported as “high polyreactivity”. In the case of “QVQLVESGGGLVQAGGSLRISCAASGSTITWYTMGWYRQAPGKERELVATIRKRGGSTYYADSVKGRFTISRDNAKNTVYLQMNSLKPEDTAVYYCNDTRLIYRFNPEEAGSTIPYDYWGQGTQVTVSS”, the “polyreactivity (PSR sort gate)” value is reported as “high polyreactivity”. With “QVQLVESGGGLVQAGGSLRISCAASGSTLVGKVMGWYRQAPGKERELVADITLSGGSTYYSDSVKGRFTISRDNAKNTVYLQMNSLKPEDTAVYYCNDVFFNYLLEYDYWGQGTQVTVSS” the “polyreactivity (PSR sort gate)” value was “high polyreactivity”. With “QVQLVESGGGLVQAGGSLRISCAASGYIFTGNAMGWYRKAPGKEREFVAAISWSGGSTYYADSVKGRFTISRDNAKNTVYLQMNSLKPEDTAVYYCNKYRPYGRIYHLAYGRDYWGQGTQVTVSS” the “polyreactivity (PSR sort gate)” value was “high polyreactivity”. For “QVQLVESGGGLVQAGGSLRISCAAYGSIFTRYAMGWYRQAPGKERELVAAINSGGSTKYADSVKGRFTISRDNAKNSVYLQMISLKPEDTAVYYCNAGYWWYGYDYWGQGSQVTVSS”, the “polyreactivity (PSR sort gate)” value was “high polyreactivity”. In the case of “QVQLVESGGGLVQAGGSLRISCAPSGRIFSYNAMGWYRPAPGKERELVAAINYSDDSTYYADSVKGRFTISRDNAKNTVYLQMNSLKPEDTAVYYCNADASSIVPSYDRPFDYWGQATQVTVSS”, the “polyreactivity (PSR sort gate)” value is reported as “low polyreactivity”. In the case of “QVQLVESGGGLVQAGGSLRISCAPSGSTFIPNDMGWYRQAPGKERELVAAITVSGDDTYYADSVKGRFTISRDNAKNNVYVQMNILKPEVTAVYYCAAEWGLYVGQYEYWGQGTQVTVSS”, the “polyreactivity (PSR sort gate)” value is reported as “low polyreactivity”. In the case of “QVQLVESGGGLVQAGGSLRISCASSGRIFAFYVMGWYRQAPGKERELVAAISIRGTRTYYADSVKGRFTISRDNAKNTVYLQMNSLKPVDTAVYYCNAVTFPHYYDYWGQGPQVTVSS”, the “polyreactivity (PSR sort gate)” value is reported as “high polyreactivity”. In the case of “QVQLVESGGGLVQAGGSLRISCASSGRIFTFYAMGWYRPAPGKERELVAAISSGGSTYYADSVKGRFTISRDNAKNTFYLQMNSLKPEDTAVYYCAAEPVWYADYDYWGQGTQVTVSS”, the “polyreactivity (PSR sort gate)” value is reported as “low polyreactivity”. In the case of “QVQLVESGGGLVQAGGSLRISCDASGRTFYVYDRGWYRQAPGKERELVAVISSSGSTNYADSVKGRFTISRDNAKNTVYLQMNSLKPEDTAVYYCNRRRWYFFSLDYWGQGTQVTVSS”, the “polyreactivity (PSR sort gate)” value is reported as “high polyreactivity”. With “QVQLVESGGGLVQAGGSLRISCDASGSIFELNAMGWYRQAPGKERELVAAISSGSTYYADSVKGRFTITRDNAKNTVYLQMNSLKPVDTAVYYCAKRWRRRFVDVWSLYDYWGQCTQVTVSS” the “polyreactivity (PSR sort gate)” value was “low polyreactivity”. For “QVQLVESGGGLVQAGGSLRISSAASGRTFVNYTMGWYRQAPGKERELVAAITSSGGSTYYADSVKGRFTISRDNAKNTVYLQMNSLKPEDTAVYYCASAIFDLSFWLYYWGQGTQVTVSS”, the “polyreactivity (PSR sort gate)” value was “low polyreactivity”. For “QVQLVESGGGLVQAGGSLRISSAASGSIFLVNALGWYRHAPGKERELVAGISDGGSTYYADSVKGRFTISRDNAKNSVYLLLICLKPEDTAVYFCAAESEQWFSYVLSYDWESDSWGQGSQVTVSS”, the “polyreactivity (PSR sort gate)” value was “low polyreactivity”. With “QVQLVESGGGLVQAGGSLRISSPASGSIFTLYDMGWYRQAPGKERELVSAITEDGASTYYADSVKGRFTISRDIAKNTVYLQMNSLKPEDTAYYYCAAHPTYWPVWYVLYDYWGQGTQVTLSS” the “polyreactivity (PSR sort gate)” value was “low polyreactivity”. With “QVQLVESGGGLVQAGGSLRITCAASGRIFGLYAMGWNRQAPGKEREFVAASSWSGTRTNYADSVKGRFTISRDNAKNTVDLQMNSLKPEDTAVYYCAAAYVSYTGYYGQEYDYWGQGTQVTVSS” the “polyreactivity (PSR sort gate)” value was “high polyreactivity”. For “QVQLVESGGGLVQAGGSLRKSCAASGRTFGYNTMGWYRQAPGKERELVAAITWSGGRTYYADSVKGRFTISRDNAKNTVYLQMNSLKPEDTAVYYCIAVIGREFDYWGQGTQVTVSS”, the “polyreactivity (PSR sort gate)” value was “high polyreactivity”. With “QVQLVESGGGLVQAGGSLRLCCAASGLTFHRYAMGSYRQAPGKERELDAAINYSGGRTYYADSVKGRFTISRDNAKNTVYLQMNSLKPEDTAVYYCAAPRASGYYWGQGTQVTVSS” the “polyreactivity (PSR sort gate)” value was “high polyreactivity”. In the case of “QVQLVESGGGLVQAGGSLRLCCAASGRIFRYNAMGWYRQAPGKERELVAAITRSGGSTYYADSVKGRFTISRDNAKNTVYLQMNSLKPEDTAVYYCAKVQNGQWSTSRVPGDYQYNYWGQGTQVTVTS”, the “polyreactivity (PSR sort gate)” value is reported as “high polyreactivity”. For “QVQLVESGGGLVQAGGSLRLCCAASGSTQAIYAMGWYRQAPGNERELVAAISGGGSTYADSVKGRFTISRDNAKNTVYLQMNSLKPEDTAVYYCNADGWGDSFWSNFRFDYWGQGTQVSVSS”, the “polyreactivity (PSR sort gate)” value was “low polyreactivity”. In the case of “QVQLVESGGGLVQAGGSLRLCCAPSGSIFYGYDMGWYRQAPGKERELVATISWSSGSSTYYADSVKGRFTISRDNAKNTVYLQMNSLKPEDTAVYYCAVDFAIGYRYLGRVDYWGQGTQVTVSS”, the “polyreactivity (PSR sort gate)” value is reported as “low polyreactivity”. In the case of “QVQLVESGGGLVQAGGSLRLFCAASGSTFISYAMGWYRQAPGKERELVAAISSSGGSTYYAYSVKGRFTISRDNAKNNVYLQMNSLKPEDTAVYYCAAEAVYYRSWRYYYCGQGTQVTVSS”, the “polyreactivity (PSR sort gate)” value is reported as “high polyreactivity”. With “QVQLVESGGGLVQAGGSLRLGCAASGITFNLYAMGWYRQAPGKERELVAAISRSATSTYYADSVKRRFTISRDNAKNTVYLQMNSLKPEDTAVYYCATRGHYRQTINYWGQGTQVTVSS” the “polyreactivity (PSR sort gate)” value was “high polyreactivity”. With “QVQLVESGGGLVQAGGSLRLICAASAITFYDYTMGWYRQAPGKERELVAAISRSGGSTYYADSVKGRFTISRDNAKNTVYLQMNSLKPEETAFYYCADYTHYQPEYDYWGQGTQVTVSS” the “polyreactivity (PSR sort gate)” value was “high polyreactivity”. In the case of “QVQLVESGGGLVQAGGSLRLICAASGFIFGYNARGWYRQAPGKERELVAAINWSGGRTYYADSVKGRFTISRDNAKKTVYLQMNRLKPEDTAVDYCNGDGSRRYNYWGQGTQVTVSS”, the “polyreactivity (PSR sort gate)” value is reported as “low polyreactivity”. With “QVQLVESGGGLVQAGGSLRLICAASGFIFPDYGMGWYRQAPGKERELVAAISRNGVSTYYADSLKRRFTISRDNAKNTVYLQMISLIPEDTAVYYCAARYYRIRRVSKSVYYWGQCTQVTVSS” the “polyreactivity (PSR sort gate)” value was “low polyreactivity”. With “QVQLVESGGGLVQAGGSLRLICAASGFIFSRYTMGWYRQAPGKERELVAAISKRGGSTYYADSVKGRFTISRDNAKNTVYLQMNSLKPEDTAVYYCAADRLPSGSLVEYWGQGTQVTVSS” the “polyreactivity (PSR sort gate)” value was “high polyreactivity”. In the case of “QVQLVESGGGLVQAGGSLRLICAASGFIFSSNAMGWYRQAPGKERELVAAITRSGGSTYYADSVKGRFTISRDNAKNTVYLQMNSLKPEDTAVYYCNAYVWRSGYDYWGQGTQVTVSS”, the “polyreactivity (PSR sort gate)” value is reported as “high polyreactivity”. With “QVQLVESGGGLVQAGGSLRLICAASGFIFTANVMGWYRQAPGKERELVAAISRSGGSTYYADSVKGRFTISRDNAKNTVYLQMNSLKPEDTAVYYCAKLRRDARYDYWGQGTQVTVSS” the “polyreactivity (PSR sort gate)” value was “high polyreactivity”.
